Source: US20040220079A1 (OKLAHOMA MEDICAL RESEARCH FOUNDATION, published 2004)
No end group written: not given here.

B1: OM99-1 (peptide)
peptide: VNLAAEF
modifications: also: Leu-Ala peptide bond replaced by hydroxyethylene isostere -CH(OH)-CH2-
notes: also called OMR99-1; Val-Asn-Leu*Ala-Ala-Glu-Phe
B2: OM99-2 (peptide)
peptide: EVNLAAEF
modifications: also: Leu-Ala peptide bond replaced by hydroxyethylene isostere -CH(OH)-CH2- (Leu*Ala)

Assays:
recombinant memapsin 2 [1] = biological target: T1, recombinant memapsin 2 (human, UniProt P56817 14-454, limits assumed); experiment: comparison of inhibition constants with and without P4 Glu
T1 construct: also called M2; beta-secretase

recombinant memapsin 2 [2] = biological target: T1, recombinant memapsin 2; experiment: enzyme inhibition with a synthetic fluorogenic peptide substrate
recombinant memapsin 2 [3] = biological target: T1, recombinant memapsin 2; experiment: inhibition constant quoted in the crystallisation example

T1 sequence (P56817 14-454 limits assumed): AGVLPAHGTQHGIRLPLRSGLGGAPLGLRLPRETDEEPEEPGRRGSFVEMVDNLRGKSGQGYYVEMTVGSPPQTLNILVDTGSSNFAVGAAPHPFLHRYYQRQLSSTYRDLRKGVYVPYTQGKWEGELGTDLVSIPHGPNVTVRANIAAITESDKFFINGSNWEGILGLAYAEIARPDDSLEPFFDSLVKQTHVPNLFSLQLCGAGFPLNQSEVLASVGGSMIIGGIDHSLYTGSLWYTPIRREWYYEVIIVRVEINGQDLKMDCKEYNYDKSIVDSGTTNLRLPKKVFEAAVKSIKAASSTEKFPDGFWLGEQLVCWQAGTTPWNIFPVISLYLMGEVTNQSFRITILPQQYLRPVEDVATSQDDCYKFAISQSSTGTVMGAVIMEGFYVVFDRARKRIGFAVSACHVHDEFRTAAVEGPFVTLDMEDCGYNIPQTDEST

Row | Binder | fold increase in Ki against OM99-2 (recombinant memapsin 2 [1]) | Ki (recombinant memapsin 2 [2]) | Ki (recombinant memapsin 2 [3])
1 | B1 | 10 fold | 0.03 µM | 
2 | B2 |  |  | 0.01 µM
